Here are results for two substances from PMC11082164.

The target of the test is recombinant human full-length BIN1 isoform 8 (human).

“recombinant ezrin wild-type (from UniProt P15311 1-586) (natural protein)”: the relative membrane binding of Alexa488-ezrin on supported lipid bilayers with 5% PI(4,5)P2 in the presence of 0.1 µM BIN1 iso8, normalized to ezrin without BIN1 (confocal intensity) was found to be 2.5 fold.

As to “recombinant ezrin T567D (from UniProt P15311 1-586) (natural protein)”, the relative membrane binding of Alexa488-ezrin-T567D on supported lipid bilayers with 5% PI(4,5)P2 in the presence of 0.1 µM BIN1 iso8, normalized to ezrin-T567D without BIN1 (confocal intensity) turned out to be 1.5 fold.
